Experimental data: CN115521375A (INST PASTEUR SHANGHAI CAS, dated 2022)

Key:
Experiment in all cases: cell-based or functional assay
[1] = target: SARS-CoV-2 B.1.1.7假病毒的S蛋白 (SARS-CoV-2 B.1.1.7)
[2] = target: SARS-CoV-2 B.1.351假病毒的S蛋白 (SARS-CoV-2 B.1.351)
[3] = target: SARS-CoV-2 B.1.617假病毒的S蛋白 (SARS-CoV-2 B.1.617)

B1: 单抗5G2 (antibody)
heavy: EVLLQQSGPELVKPGASVKIPCKASGYTFTDYNMDWVKQSHGKSLEWIGDINPNSGFIIYNQKFKGKASLTVDKSSSTAYMELRSLTSEDTAVYYCAREGYGNNFDYWGQGTTLSVSSAKTTPPSVYPLAPGCGDTTGSSVTLGCLVKGYFPESVTVTWNSGSLSSSVHTFPALLQSGLYTMSSSVTVPSSTWPSQTVTCSVAHPASSTTVDKKLEPSGPISTINPCPPCKECHKCPAPNLEGGPSVFIFPPNIKDVLMISLTPKVTCVVVDVSEDDPDVQISWFVNNVEVHTAQTQTHREDYNSTIRVVSTLPIQHQDWMSGKEFKCKVNNKDLPSPIERTISKIKGLVRAPQVYILPPPAEQLSRKDVSLTCLVVGFNPGDISVEWTSNGHTEENYKDTAPVLDSDGSYFIYSKLNMKTSKWEKTDSFSCNVRHEGLKNYYLKKTISRSPGK
light: DILLTQSPTILSVSPGERVSFSCRASQSIGTSIHWYQQRTKGSPRLLIKYASESISGIPSRFSGSGSGTDFTLSINSVESEDIGDYYCQQSYSWPTTFGAGTKLELK
notes: also called 抗体5G2
In the case of B1, the “半数抑制浓度(IC50), 假病毒中和试验” value [1] is reported as 0.482 µg/mL, the “半数抑制浓度(IC50), 假病毒中和试验” value [2] is reported as 0.367 µg/mL and the “半数抑制浓度(IC50), 假病毒中和试验” value [3] is reported as 0.103 µg/mL.

B2: 单抗3H3 (antibody, V domains shown)
VH: QVQLQQPGAELVRPGASVKLSCKASGYSFTRFWMNWVKQRPGQGLEWIGMIHPSDSETRLNQKFKDKATLTVDKSSTTAYMQLSSPTSEDSAVYYCARKDYDYDAWFAYWGQGTLVTVSA
VL: DIVLTQSPASLAVSLGQRATISCRASKSVSASVYSYMHWYQQKPGQPPKLLIYLASSLESGVPARFSGSGSGTDFTLNIHPVEEEDAATYYCHHSRELPPAFGGGTKLEIKR
notes: also called 抗体3H3
In the case of B2, the “中和IC50, 假病毒中和试验” value [1] is reported as 0.191 µg/mL, the “中和IC50, 假病毒中和试验” value [2] is reported as 0.107 µg/mL and the “中和IC50, 假病毒中和试验” value [3] is reported as 0.098 µg/mL.
